Experimental data from paper PMC7794784, “A Very Bright Far-Red Bioluminescence Emitting Combination Based on Engineered Railroad Worm Luciferase and 6′-Amino-Analogs for Bioimaging Purposes” (International Journal of Molecular Sciences, 2020).
Where a chain is given by its changes, count along the chain named. Numbers in names are those of the source.

B1: PxRE luciferase (P. hirtus red-emitting luciferase, RE WT) (Phrixothrix hirtus) (protein)
chain: MEEENIVNGDRPRDLVFPGTAGLQLYQSLYKYSYITDGIIDAHTNEVISYAQIFETSCRLAVSLEKYGLDHNNVVAICSENNIHFFGPLIAALYQGIPMATSNDMYTEREMIGHLNISKPCLMFCSKKSLPFILKVQKHLDFLKKVIVIDSMYDINGVECVFSFVSRYTDHAFDPVKFNPKEFDPLERTALIMTSSGTTGLPKGVVISHRSITIRFVHSSDPIYGTRIAPDTSILAIAPFHHAFGLFTALAYFPVGLKIVMVKKFEGEFFLKTIQNYKIASIVVPPPIMVYLAKSPLVDEYNLSSLTEIACGGSPLGRDIADKVAKRLKVHGILQGYGLTETCSALILSPNDRELKKGAIGTPMPYVQVKVIDINTGKALGPREKGEICFKSQMLMKGYHNNPQATRDALDKDGWLHTGDLGYYDEDRFIYVVDRLKELIKYKGYQVAPAELENLLLQHPNISDAGVIGIPDEFAGQLPSACVVLEPGKTMTEKEVQDYIAELVTTTKHLRGGVVFIDSIPKGPTGKLMRNELRAIFAREQAKSKL
B2: PxRE luciferase (P. hirtus red-emitting luciferase, RE WT) (Phrixothrix hirtus; R215K) (protein)
chain: B1 chain with R215K

Tests used:
purified protein = substrate: Nc1ncnc2c1ncn2[C@@H]1O[C@H](COP(=O)(O)OP(=O)(O)OP(=O)(O)O)[C@@H](O)[C@H]1O; assay: purified protein; conditions: co-substrate D-luciferin, 4 mM MgSO4, 0.10 M Tris-HCl pH 8.0, 22 °C
[1] = substrate: O=C(O)[C@H]1CSC(c2nc3ccc(N4CCCC4)cc3s2)=N1; assay: bioluminescence peak intensity (I0), Lineweaver-Burk; format: biochemical, Phrixothrix hirtus; conditions: 2 mM ATP, 4 mM MgSO4, 0.10 M Tris-HCl pH 8.0, 22 °C, kcat in relative luminometer counts
Source text: (§1) bioluminescence peak intensity (I0), Lineweaver-Burk on PxRE luciferase (P. hirtus red-emitting luciferase, RE WT)

[2] = substrate: O=C(O)[C@H]1CSC(c2nc3ccc(O)cc3s2)=N1; assay: as above; format: biochemical, Phrixothrix hirtus; conditions: 2 mM ATP, 4 mM MgSO4, 0.10 M Tris-HCl pH 8.0, 22 °C, kcat in relative luminometer counts
Source text: as §1

| Protein | Km (purified protein) [µM] | Km [1] [µM] | Km [2] [µM] |
| --- | --- | --- | --- |
| B1 | 230 | 0.5 | 7 |
| B2 | 50 | 1.0 | 40 |
